Laboratory results: patent publication US20070071744A1 (published 2007)
Ends that are not written are not given here.

How the values were obtained:
Experiment in all cases: PepSpot peptide array
[1] = biological target: T1, peptide 87 (human)
T1 peptide: Ac-AHSGTYRCYSFSS
Method: (§1) The peptides were synthesized on a cellulose membrane in a stepwise manner resulting in a defined arrangement (peptide array) and are covalently bound to the cellulose membrane. Binding assays were performed directly on the peptide array. In general an antigen peptide array is incubated with blocking buffer for several hours to reduce non-specific binding of proteins or antibodies. It follows the incubation with a primary (antigen peptide-binding) antibody in blocking buffer and an incubation with a horseradish peroxidase (HRP)-labelled secondary antibody, which binds selectively the primary antibody. Alternatively a HRP-labelled primary antibody in blocking buffer can be used.
(§2) A short T(Tween)-TBS-buffer washing directly after the incubation of the antigen peptide array with the secondary protein or antibody or the HRP-labelled primary antibody followed by the first chemiluminescence experiment is made to get an first overview which antigen peptides do bind the primary antibody. Several buffer washing steps follow (T-TBS- and TBS-buffer) to reduce false positive binding (unspecific antibody binding to the cellulose membrane itself). After these washing steps the final chemiluminescence analysis is performed. The data were analysed with an imaging system showing the signal intensity (Light units, LU) as single measurements for each peptide. In order to evaluate non-specific binding of secondary antibodies, incubations using the secondary antibody have to be performed in the absence of the primary antibody as control incubation.

[2] = biological target: T2, peptide 36 (human)
T2 peptide: Ac-AVLFIPAMKRSLA
Method: as §1, §2

[3] = biological target: T3, peptide 26 (human)
T3 peptide: Ac-PPGVDLYRLEKLS
Method: as §1, §2

[4] = biological target: T4, peptide 58 (human)
T4 peptide: Ac-SLSAQPGPAVSSG
Method: as §1, §2

[5] = biological target: T5, peptide 110 (human)
T5 peptide: Ac-SVAEFSEATAELT
Method: as §1, §2

[6] = biological target: T6, peptide 34 (human)
T6 peptide: Ac-YQDQAVLFIPAMK
Method: as §1, §2

[7] = biological target: T7, peptide 73 (human)
T7 peptide: Ac-LYKEGDPAPYKNP
Method: as §1, §2

[8] = biological target: T8, peptide 23 (human)
T8 peptide: Ac-TLRCQGPPGVDLY
Method: as §1, §2

[9] = biological target: T9, peptide 2 (human, cysteine pairing not given here)
T9 peptide: Ac-PSPTALFCLGLCL
Method: as §1, §2

[10] = biological target: T10, peptide 103 (human)
T10 peptide: Ac-TSVTPSRLPTEPP
Method: as §1, §2

[11] = biological target: T11, peptide 122 (human)
T11 peptide: Ac-TSRSITTSPKESD
Method: as §1, §2

[12] = biological target: T12, peptide 65 (human)
T12 peptide: Ac-DVTLQCQTRYGFD
Method: as §1, §2

[13] = biological target: T13, peptide 27 (human)
T13 peptide: Ac-GVDLYRLEKLSSS
Method: as §1, §2

[14] = biological target: T14, peptide 64 (human)
T14 peptide: Ac-GGDVTLQCQTRYG
Method: as §1, §2

[15] = biological target: T15, peptide 102 (human)
T15 peptide: Ac-TGTSVTPSRLPTE
Method: as §1, §2

[16] = biological target: T16, peptide 43 (human)
T16 peptide: Ac-RYRCSYQNGSLWS
Method: as §1, §2

[17] = biological target: T17, peptide 45 (human)
T17 peptide: Ac-SYQNGSLWSLPSD
Method: as §1, §2

[18] = biological target: T18, peptide 106 (human)
T18 peptide: Ac-RLPTEPPSSVAEF
Method: as §1, §2

[19] = biological target: T19, peptide 86 (human)
T19 peptide: Ac-TAAHSGTYRCYSF
Method: as §1, §2

[20] = biological target: T20, peptide 50 (human)
T20 peptide: Ac-PSDQLELVATGVF
Method: as §1, §2

[21] = biological target: T21, peptide 47 (human)
T21 peptide: Ac-GSLWSLPSDQLEL
Method: as §1, §2

[22] = biological target: T22, peptide 83 (human)
T22 peptide: Ac-FPIITVTAAHSGT
Method: as §1, §2

[23] = biological target: T23, peptide 71 (human)
T23 peptide: Ac-DQFALYKEGDPAP
Method: as §1, §2

[24] = biological target: T24, peptide 128 (human)
T24 peptide: Ac-DSPAGPARQYYTK
Method: as §1, §2

[25] = biological target: T25, peptide 75 (human)
T25 peptide: Ac-GDPAPYKNPERWY
Method: as §1, §2

[26] = biological target: T26, peptide 114 (human)
T26 peptide: Ac-TAELTVSFTNKVF
Method: as §1, §2

[27] = biological target: T27, peptide 96 (human)
T27 peptide: Ac-WSAPSDPLELVVT
Method: as §1, §2

[28] = biological target: T28, peptide 74 (human)
T28 peptide: Ac-KEGDPAPYKNPER
Method: as §1, §2

[29] = biological target: T29, peptide 81 (human)
T29 peptide: Ac-YRASFPIITVTAA
Method: as §1, §2

[30] = biological target: T30, peptide 61 (human)
T30 peptide: Ac-GPAVSSGGDVTLQ
Method: as §1, §2

[31] = biological target: T31, peptide 78 (human)
T31 peptide: Ac-KNPERWYRASFPI
Method: as §1, §2

[32] = biological target: T32, peptide 10 (human)
T32 peptide: Ac-PAQSGPLPKPSLQ
Method: as §1, §2

[33] = biological target: T33, peptide 51 (human)
T33 peptide: Ac-DQLELVATGVFAK
Method: as §1, §2

[34] = biological target: T34, peptide 120 (human)
T34 peptide: Ac-FTTETSRSITTSP
Method: as §1, §2

[35] = biological target: T35, peptide 66 (human)
T35 peptide: Ac-TLQCQTRYGFDQF
Method: as §1, §2

[36] = biological target: T36, peptide 85 (human)
T36 peptide: Ac-TVTAAHSGTYRCY
Method: as §1, §2

[37] = biological target: T37, peptide 1 (human)
T37 peptide: Ac-MSPSPTALFCLGL
Method: as §1, §2

[38] = biological target: T38, peptide 44 (human)
T38 peptide: Ac-RCSYQNGSLWSLP
Method: as §1, §2

[39] = biological target: T39, peptide 4 (human, cysteine pairing not given here)
T39 peptide: Ac-ALFCLGLCLGRVP
Method: as §1, §2

[40] = biological target: T40, peptide 90 (human)
T40 peptide: Ac-RCYSFSSRDPYLW
Method: as §1, §2

[41] = biological target: T41, peptide 121 (human)
T41 peptide: Ac-TETSRSITTSPKE
Method: as §1, §2

[42] = biological target: T42, peptide 31 (human)
T42 peptide: Ac-KLSSSRYQDQAVL
Method: as §1, §2

B1: monoclonal antibody hGP 5C4 (antibody, V domains shown)
VH: EVKLQESGGGLVQPGRSLKLSCTASGFTFSDYFMSWVRQAPTRGLEWVASISSGGASAYWRDSVKGRFTISRDNAKSALYLQMDSLRSEDTATYFCARGELDFDYWGQGVMVAVSS
VL: ADPNSTLLSASVGDRVTLNCTASQNVYKNLAWYQQKLGEAPRLLLYSANSQTGIPSRFSGSGSGPDFTLTISSLQPEDVASYFCQQYYSGNTFGAGTKLELKR
notes: Rat hybridoma antibody (Lou/C rats), heavy chain gamma 2a, light chain kappa; also called ab 5C4; anti-GPVI mAb 5C4
[1]
  LU (Light Units): 93 LU
[2]
  LU (Light Units): 125 LU
[3]
  LU (Light Units): 101 LU
[4]
  LU (Light Units): 110 LU
[5]
  LU (Light Units): 71 LU
[6]
  LU (Light Units): 125 LU
[7]
  LU (Light Units): 33 LU
[8]
  LU (Light Units): 76 LU
[9]
  LU (Light Units): 79 LU
[10]
  LU (Light Units): 50 LU
[11]
  LU (Light Units): 195 LU
[12]
  LU (Light Units): 26 LU
[13]
  LU (Light Units): 100 LU
[14]
  LU (Light Units): 6 LU
[15]
  LU (Light Units): 160 LU
[16]
  LU (Light Units): 64 LU
[17]
  LU (Light Units): 12 LU
[18]
  LU (Light Units): 2 LU
[19]
  LU (Light Units): 58 LU
[20]
  LU (Light Units): 38 LU
[21]
  LU (Light Units): 79 LU
[22]
  LU (Light Units): 75 LU
[23]
  LU (Light Units): 29 LU
[24]
  LU (Light Units): 66 LU
[25]
  LU (Light Units): 95 LU
[26]
  LU (Light Units): 226 LU
[27]
  LU (Light Units): 210 LU
[28]
  LU (Light Units): 8 LU
[29]
  LU (Light Units): 141 LU
[30]
  LU (Light Units): 71 LU
[31]
  LU (Light Units): 51 LU
[32]
  LU (Light Units): 1330 LU
[33]
  LU (Light Units): 73 LU
[34]
  LU (Light Units): 250 LU
[35]
  LU (Light Units): 82 LU
[36]
  LU (Light Units): 14 LU
[37]
  LU (Light Units): 149 LU
[38]
  LU (Light Units): 9 LU
[39]
  LU (Light Units): 5 LU
[40]
  LU (Light Units): 65 LU
[41]
  LU (Light Units): 186 LU
[42]
  LU (Light Units): 211 LU
